Test results taken from article PMC10992476, “Efficient production of salvianic acid A from L-dihydroxyphenylalanine through a tri-enzyme cascade” (Bioresources and Bioprocessing, 2023).

Assays:
[1] = biological target: phenylpyruvate reductase from Lactobacillus sp. CGMCC 9967 (LaPPR) (Lactobacillus sp. CGMCC 9967); assay: crystal structure; apo-LaPPR wild type, sitting drop vapor diffusion, 20 °C, protein 28 mg/mL, 0.1 M citric acid pH 3.5, 14% w/v PEG 1000, 0.01 M beta-nicotinamide adenine dinucleotide; molecular replacement with PDB 3EVT
purified protein = substrate: O=C(O)C(=O)Cc1ccc(O)c(O)c1; assay: purified protein; type: biochemical, Lactobacillus sp. CGMCC 9967; settings: 2 mM NADH, Tris-HCl 50 mM pH 7.0, 30 °C

| stoichiometry N [1] | Molecule | Km (purified protein) | kcat (purified protein) | kcat/Km (purified protein) |
| --- | --- | --- | --- | --- |
| 2 | phenylpyruvate reductase from Lactobacillus sp. CGMCC 9967 (LaPPR) (enzyme) |  |  |  |
|  | LaPPR (Lactobacillus sp. CGMCC 9967) (protein, homodimer) MMKILNSFSLKPEQRQTLEAAGHTVIDADKLDDATAQQIDVVYGWNAAATRVNFDRLQFVQAMSAGVDYLPLAELAKHHVLLANTSGIHAEPIAEYVLGALFTISRGILPAIRADRDMWTLRQERPPMTLLKGKTAVIFGTGHIGSTIATKLQALGLHTIGVSAHGRPAAGFDQVMTDVATHEAAGRADVVINALPLTPDTKHFYDEAFFAAASKQPLFINIGRGPSVDMAALTQALKNKQISAAALDVVDPEPLPQDSPLWGMTNVLLTPHISGTVPQLRDKVFKIFNDNLKTLISSGQLASHQVDLTRGY | 6.20 ± 0.15 mM | 1.21 ± 0.03 s⁻¹ | 200 M⁻¹ s⁻¹ |
|  | LaPPR (Lactobacillus sp. CGMCC 9967; H143D/H89M/P256C) (protein, homodimer) MMKILNSFSLKPEQRQTLEAAGHTVIDADKLDDATAQQIDVVYGWNAAATRVNFDRLQFVQAMSAGVDYLPLAELAKHHVLLANTSGIMAEPIAEYVLGALFTISRGILPAIRADRDMWTLRQERPPMTLLKGKTAVIFGTGDIGSTIATKLQALGLHTIGVSAHGRPAAGFDQVMTDVATHEAAGRADVVINALPLTPDTKHFYDEAFFAAASKQPLFINIGRGPSVDMAALTQALKNKQISAAALDVVDPEPLCQDSPLWGMTNVLLTPHISGTVPQLRDKVFKIFNDNLKTLISSGQLASHQVDLTRGY | 2.52 ± 0.27 mM | 5.74 ± 0.24 s⁻¹ | 2050 M⁻¹ s⁻¹ |
|  | LaPPR (Lactobacillus sp. CGMCC 9967; H143D/H89M) (protein, homodimer) MMKILNSFSLKPEQRQTLEAAGHTVIDADKLDDATAQQIDVVYGWNAAATRVNFDRLQFVQAMSAGVDYLPLAELAKHHVLLANTSGIMAEPIAEYVLGALFTISRGILPAIRADRDMWTLRQERPPMTLLKGKTAVIFGTGDIGSTIATKLQALGLHTIGVSAHGRPAAGFDQVMTDVATHEAAGRADVVINALPLTPDTKHFYDEAFFAAASKQPLFINIGRGPSVDMAALTQALKNKQISAAALDVVDPEPLPQDSPLWGMTNVLLTPHISGTVPQLRDKVFKIFNDNLKTLISSGQLASHQVDLTRGY | 3.63 ± 0.17 mM | 2.35 ± 0.12 s⁻¹ | 650 M⁻¹ s⁻¹ |
|  | LaPPR (Lactobacillus sp. CGMCC 9967; H143D) (protein, homodimer) MMKILNSFSLKPEQRQTLEAAGHTVIDADKLDDATAQQIDVVYGWNAAATRVNFDRLQFVQAMSAGVDYLPLAELAKHHVLLANTSGIHAEPIAEYVLGALFTISRGILPAIRADRDMWTLRQERPPMTLLKGKTAVIFGTGDIGSTIATKLQALGLHTIGVSAHGRPAAGFDQVMTDVATHEAAGRADVVINALPLTPDTKHFYDEAFFAAASKQPLFINIGRGPSVDMAALTQALKNKQISAAALDVVDPEPLPQDSPLWGMTNVLLTPHISGTVPQLRDKVFKIFNDNLKTLISSGQLASHQVDLTRGY | 5.03 ± 0.14 mM | 2.08 ± 0.11 s⁻¹ | 410 M⁻¹ s⁻¹ |
|  | LaPPR (Lactobacillus sp. CGMCC 9967; H89M) (protein, homodimer) MMKILNSFSLKPEQRQTLEAAGHTVIDADKLDDATAQQIDVVYGWNAAATRVNFDRLQFVQAMSAGVDYLPLAELAKHHVLLANTSGIMAEPIAEYVLGALFTISRGILPAIRADRDMWTLRQERPPMTLLKGKTAVIFGTGHIGSTIATKLQALGLHTIGVSAHGRPAAGFDQVMTDVATHEAAGRADVVINALPLTPDTKHFYDEAFFAAASKQPLFINIGRGPSVDMAALTQALKNKQISAAALDVVDPEPLPQDSPLWGMTNVLLTPHISGTVPQLRDKVFKIFNDNLKTLISSGQLASHQVDLTRGY | 5.74 ± 0.08 mM | 1.37 ± 0.06 s⁻¹ | 240 M⁻¹ s⁻¹ |
